According to IntAct's records for PubMed 11265755:

Target: esr1_human ESR1 (UniProt P03372)
Sequence (P03372 whole entry): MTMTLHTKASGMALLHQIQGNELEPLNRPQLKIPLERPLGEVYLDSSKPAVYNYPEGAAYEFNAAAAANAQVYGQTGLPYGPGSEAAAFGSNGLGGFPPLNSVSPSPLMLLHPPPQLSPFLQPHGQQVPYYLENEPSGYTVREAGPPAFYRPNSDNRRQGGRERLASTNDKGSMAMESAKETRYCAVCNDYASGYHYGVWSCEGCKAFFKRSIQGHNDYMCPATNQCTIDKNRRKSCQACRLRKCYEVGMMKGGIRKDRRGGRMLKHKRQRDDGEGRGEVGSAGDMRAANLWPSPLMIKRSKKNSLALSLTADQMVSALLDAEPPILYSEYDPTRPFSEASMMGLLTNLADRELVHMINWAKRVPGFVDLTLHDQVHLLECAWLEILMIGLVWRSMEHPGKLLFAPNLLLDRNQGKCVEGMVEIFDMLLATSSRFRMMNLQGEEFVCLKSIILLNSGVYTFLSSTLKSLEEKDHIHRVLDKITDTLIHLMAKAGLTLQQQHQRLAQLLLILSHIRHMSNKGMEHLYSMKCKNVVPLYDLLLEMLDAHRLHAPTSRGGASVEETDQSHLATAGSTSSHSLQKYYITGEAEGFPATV

effect of a mutation on the interaction: disrupting interaction
Substance: Nuclear receptor coactivator 2 (Homo sapiens), Q15596 L644A;L645A;L693A;L694A;L748A;L749A
